According to publication PMC9455977, “Deciphering the Regulatory Circuits of RA3 Replication Module - Mechanisms of the Copy Number Control”:

System: RepA D76V (plasmid RA3 (IncU, isolated from Aeromonas hydrophila))
Experiment: EMSA
Details: 25 mM Tris-HCl pH 8.0, 5 mM MgCl2, 40 mM NaCl, 0.5 mg/mL BSA, 30 min at 37 C, 20 uL; 30 ng PCR fragment (0.8% agarose) or 150 ng ds oligo (10% native PAGE) …

## repAp 256 bp PCR fragment
  binding signal (fold lower affinity than WT RepA): 5
